Target: T1, β-subunit of wild-type CPC acylase derived from Pseudomonas sp. SE83 (Pseudomonas sp. SE83, UniProt P15558 240-774)
T1 construct: About 58 kDa subunit of 535 amino acids; also called AcyII β-subunit; CPC acylase β-subunit
T1 sequence: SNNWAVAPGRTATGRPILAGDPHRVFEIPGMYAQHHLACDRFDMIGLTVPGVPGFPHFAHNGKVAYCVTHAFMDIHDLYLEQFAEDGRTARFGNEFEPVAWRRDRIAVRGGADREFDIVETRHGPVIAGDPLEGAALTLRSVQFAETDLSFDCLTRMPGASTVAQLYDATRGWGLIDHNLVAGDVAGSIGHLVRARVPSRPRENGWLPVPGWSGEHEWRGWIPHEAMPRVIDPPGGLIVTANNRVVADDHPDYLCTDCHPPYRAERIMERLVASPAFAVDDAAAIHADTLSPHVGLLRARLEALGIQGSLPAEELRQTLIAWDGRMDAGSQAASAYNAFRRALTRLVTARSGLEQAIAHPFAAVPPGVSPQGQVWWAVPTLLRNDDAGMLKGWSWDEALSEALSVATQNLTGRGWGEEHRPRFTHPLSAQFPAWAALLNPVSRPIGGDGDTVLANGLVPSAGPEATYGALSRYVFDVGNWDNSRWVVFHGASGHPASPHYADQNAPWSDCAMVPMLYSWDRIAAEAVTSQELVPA
Experiment: non-denaturing PAGE and MALDI-TOF of the purified enzyme (single species of about 83 kDa) against denaturing SDS-PAGE (bands of 25 kDa and 58 kDa)
From the text: Further, the active fraction of wild-type CPC acylase obtained in Example <2-1> was subjected to non-denaturing PAGE and Coomasie blue staining. As a result, a single band was detected at a position corresponding to the molecular weight of about 83 kDa, which means that the wild-type CPC acylase was purely purified (FIGS. 11a to 11c). Together with the result of non-denaturing PAGE, MALDI-TOF mass spectrophotometry analysis confirmed that the molecular weight of purified enzyme (that is, the active CPC acylase) is about 83 kDa. Furthermore, about 25 kDa of band corresponding to α-subunit and about 58 kDa of band corresponding to β-subunit were detected by denaturing SDS-PAGE.

binding result: binds
B1: α-subunit of wild-type CPC acylase derived from Pseudomonas sp. SE83 (enzyme)
chain: TMAAKTDREALQAALPPLSGSLSIPGLSAPVRVQRDGWGIPHIKASGEADAYRALGFVHAQDRLFQMELTRRKALGRAAEWLGAEAAEADILVRRLGMEKVCRRDFEALGAEAKDMLRAYVAGVNAFLASGAPLPIEYGLLGAEPEPWEPWHSIAVMRRLGLLMGSVWFKLWRMLALPVVGAANALKLRYDDGGQDLLCIPPGVEAERLEADLAALRPAVDALLKAMGG
notes: About 25 kDa subunit of 229 amino acids; also called AcyII α-subunit; CPC acylase α-subunit
